Target: HA-Ras (wild-type) (UniProt P01112)
UniProt P01112, sequence (P01112 whole entry, looked up): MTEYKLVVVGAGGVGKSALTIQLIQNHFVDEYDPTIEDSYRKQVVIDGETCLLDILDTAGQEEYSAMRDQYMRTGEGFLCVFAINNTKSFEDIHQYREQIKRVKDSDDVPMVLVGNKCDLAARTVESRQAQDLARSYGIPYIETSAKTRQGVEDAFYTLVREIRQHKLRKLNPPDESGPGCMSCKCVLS

In the case of Flag-SOS, the “amount of GTP-bound HA-Ras (32-PO4 labeling, a-HA immunoprecipitation, TLC)” value is reported as “expression of Flag-SOS significantly increased the amount of GTP-bound HA-Ras”.
